Data as given in patent US20250277008A1, “Novel Anti-Bacterial Peptides Derived From Differentiating Stem Cells” (AGENCY FOR SCIENCE, TECHNOLOGY AND RESEARCH, priority 2022, published 2025).
Values after ≈ are worked out from the molar mass of the structure shown. “Also recorded” adds a separate entry of the source. Where two headings read alike, the source gives them in different places. Ends that are not written are not given here.

Tests used:
[1] = tested on: human keratinocytes; assay: 2-dimensional scratch assay; assay type: cell-based; conditions: compared to media control
Protocol: Cell confluency of human keratinocytes were assessed in presence of peptides in a 2D scratch assay at each timepoint by applying an ImageJ plugin PHANTAST on phase contrast time lapse images. The rate of change of keratinocytes confluency was calculated by obtaining a best fit line across the confluency vs time plot as described in. The rate of change of confluence was used as a surrogate measure for speed of migrating keratinocytes.

[2] = tested on: P. aeruginosa (PA); assay type: cell-based, Pseudomonas aeruginosa (ATCC 14213); conditions: for minimum bactericidal concentration (MBC): PA; for minimum bactericidal concentration (MBC) / concentration required to significantly kill: MBC = lowest concentration killing ≥50% colonies vs media control
Protocol: (§1) Examination of the potency of conditioned media obtained from adipose-derived mesenchymal stem cells (ASC-CM) and recombinant peptides against S. typhimurium, P. aeruginosa and S. aureus strains were performed by using the broth microdilution protocol from the Clinical and Laboratory Standards Institute (CLSI) guidelines (CLSI 2012). Briefly, five freshly plated bacteria colonies were grown in cation adjusted MH2 broth in a shaker incubator at 37° C., 220 RPM. Cells were grown to an optical density (OD600) of 0.20 using a Microplate Spectrophotometer. 100 μL of microbial culture containing ˜5×10^5 CFU/mL of bacteria in the respective broths were introduced into each well containing 100 μL of ASC-CM or peptides and incubated overnight at 37° C. Next, to check the bactericidal effects, 100 μL from each well was transferred and spread on sterile MH2 agar plates. The plates were incubated overnight at 37° C. and the number of colonies forming units (CFU) was observed the next day. Readings of bacteria grown in media without any treatments were normalized to 100% as media control. Minimum bactericidal concentration (MBC) was defined as the lowest peptide concentration (μM) required to kill ≥50% bacterial colonies compared to the media control.

[3] = tested on: 3-day old P. aeruginosa (PA) biofilm; assay: Estimation of biofilm disruption (crystal violet staining); assay type: cell-based, Pseudomonas aeruginosa (ATCC 14213)
Protocol: Biofilms were grown in cation adjusted MH2 broth for 72 hours in 96-well clear bottom polystyrene plates. The biofilm inoculum was prepared by subculturing overnight bacterial culture for 90 minutes until OD600 reaches ˜0.3-0.4. 200 μL of biofilm inoculum was aliquoted into each well of the 96-well plate. After 72 hours of static incubation at 37° C., the spent media was expelled, and the biofilms were treated with ASC-CM for 24 hours. […] Briefly, all the contents in the 96-well plates were removed and the wells were washed thrice with 1×PBS (Phosphate Buffer Solution) to remove the non-adherent planktonic bacteria. The attached biofilms were fixed with 95% methanol for 5 minutes. The wells were air-dried and stained with 0.1% crystal violet solution for 15 minutes at room temperature. The crystal violet solution was removed, and the wells were washed with water three times. The plates were again air-dried, and the stained biofilm was solubilized using 30% acetic acid. The absorbance of the biofilms were recorded at OD595 using Micro xMark™ Microplate Absorbance Spectrophotometer.

[4] = tested on: S. typhimurium (ST); assay: Anti-bacterial resistance evolution assay (serial passaging); assay type: cell-based; conditions: Salmonella enterica, 384 h, read-out: Minimum Inhibitory Concentration (MIC) after serial passaging
Protocol: To determine the antibacterial effects of the ASC-CM or anti-bacterial peptides, intracellular ATP levels of the bacteria was determined by the ATP Determination Kit. As indicated in the antibacterial assay protocol, after overnight incubation of the ASC-CM or peptides with bacteria for a period of 24 hours, the culture was first spun to eliminate the extracellular ATP and other metabolic waste released from the dead bacteria. The bacterial pellet was resuspended in equivalent amount of water and the levels of intracellular ATP was calculated based on manufacturer's instructions.
The resistance development of S. typhimurium (ST) strain was assessed by sequential passaging in the presence of sub-inhibitory concentrations of gentamicin or ASC-CM. Briefly, sequential passaging of S. typhimurium (ST) cells was done with full-strength, ½-strength, and ¼-strengths of ASC-CM or sub-inhibitory concentrations of gentamicin for a period of 4 weeks. The cells grown in sub-inhibitory strengths of either conditioned media (CM) or gentamicin were diluted to A600 nm (OD600) of 0.1 and serially passaged daily with the same concentrations for 4 weeks at 37° C. with agitation at 24 h intervals.

[5] = tested on: S. typhimurium (ST); assay: Antibacterial assay (CLSI broth microdilution, CFU counts); assay type: cell-based; conditions: for minimum bactericidal concentration (MBC) / concentration required to significantly kill: MBC = lowest concentration killing ≥50% colonies vs media control
Protocol: as §1

[6] = tested on: P. aeruginosa 14213; assay: Murine excisional wound infection model; assay type: in vivo, mice; conditions: wounds infected 24 hours, then ENO3 (0.2 nM) or SPARCL1 (0.067 nM) for 24 hours; vs untreated controls
Protocol: The murine wound infection model was carried as described with minor modifications. […] Statistical analysis was performed by Student's t-test compared to untreated (PBS). All approved procedures were performed in accordance with the 218 Institutional Animal Care and Use Committee (IACUC) in Nanyang Technological 219 University, School of Biological Sciences (ARFSBS/NIEA0198Z) for murine wound infection model.
The biofilm disruption ability of ENO3 and SPARCL1 in a murine excisional wound infection model. Excisional wounds were infected with ˜10^3 CFU of P. aeruginosa 14213 and treated for 24 hours to form the biofilms. […] Post-treatment, the wound region was excised, and the bacterial count were enumerated.

[7] = tested on: 3-day old S. typhimurium (ST) biofilm; assay: Estimation of biofilm disruption (crystal violet staining); assay type: cell-based, Salmonella typhimurium
Protocol: Biofilms were grown in cation adjusted MH2 broth for 72 hours in 96-well clear bottom polystyrene plates. The biofilm inoculum was prepared by subculturing overnight bacterial culture for 90 minutes until OD600 reaches ˜0.3-0.4. 200 μL of biofilm inoculum was aliquoted into each well of the 96-well plate. After 72 hours of static incubation at 37° C., the spent media was expelled, and the biofilms were treated with ASC-CM for 24 hours. Post-treatment, the minimum biofilm inhibition concentration (MBIC) showing >50% reduction was determined by quantifying the levels of remaining attached biofilm, by crystal violet staining method. Briefly, all the contents in the 96-well plates were removed and the wells were washed thrice with 1×PBS (Phosphate Buffer Solution) to remove the non-adherent planktonic bacteria. The attached biofilms were fixed with 95% methanol for 5 minutes. The wells were air-dried and stained with 0.1% crystal violet solution for 15 minutes at room temperature. The crystal violet solution was removed, and the wells were washed with water three times. The plates were again air-dried, and the stained biofilm was solubilized using 30% acetic acid. The absorbance of the biofilms were recorded at OD595 using Micro xMark™ Microplate Absorbance Spectrophotometer.

[8] = tested on: S. aureus (SA); assay type: cell-based; conditions: for minimum bactericidal concentration (MBC) / concentration required to significantly kill: MBC = lowest concentration killing ≥50% colonies vs media control
Protocol: as §1

[9] = tested on: P. aeruginosa (PA); assay type: cell-based, Pseudomonas aeruginosa (ATCC 14213); conditions: FIG. 6H

KVNQIGSVTESIQACKLAQSN [Peptide E1A]
migration of human keratinocytes (rate of change of confluency) [1]: increased migration of human keratinocytes; also recorded: higher migration speed | anti-bacterial activity (bacterial viability) ([2]; E1A 0.39 μM): more than 50% | minimum bactericidal concentration (MBC) [2]: 390 nM | biofilm disruption activity ([3]; E1A 0.39 μM-1.56 μM): more than 50%

CN[C@@H]1[C@@H](O)C(O[C@@H]2[C@@H](O)[C@H](O[C@H]3O[C@H]([C@@H](C)NC)CC[C@H]3N)[C@@H](N)C[C@H]2N)OC[C@]1(C)O (stereo partly drawn) [Gentamicin, (3R,4R,5R)-2-{[(1S,2S,3R,4S,6R)-4,6-diamino-3-{[(2R,3R,6S)-3-amino-6-[(1R)-1-(methylamino)ethyl]oxan-2-yl]oxy}-2-hydroxycyclohexyl]oxy}-5-methyl-4-(methylamino)oxane-3,5-diol, reference compound]
migration of human keratinocytes (rate of change of confluency) [1]: significantly impaired; also recorded: no cell migration is observed | MIC [4]: 1020 µg/mL (≈ 2140 µM)

KQRNKVKKIYLDEKR [Peptide S1B, KQRNKVKKIYLDEKR]
minimum bactericidal concentration (MBC) [2]: 50000 nM | anti-bacterial activity (bacterial viability) ([2]; S1B 50 μM): more than 50% | biofilm disruption activity ([3]; S1B 6.25 μM-12.5 μM): more than 50%

HHKAEKSSVLKSKEESH [Peptide S1A, HHKAEKSSVLKSKEESH]
minimum bactericidal concentration (MBC) [2]: 100000 nM | anti-bacterial activity (bacterial viability) ([2]; S1A 100 μM): more than 50% | biofilm disruption activity ([3]; S1A 0.78 μM-3.125 μM): more than 50%

B1: SPARCL1: recombinant full-length human SPARCL1 peptide, SEQ ID NO: 2, identified in bacteria-primed ASC conditioned media (protein, listed as Homo sapiens)
chain: MKTGLFFLCLLGTAAAIPTNARLLSDHSKPTAETVAPDNTAIPSLRAEAEENEKETAVSTEDDSHHKAEKSSVLKSKEESHEQSAEQGKSSSQELGLKDQEDSDGHLSVNLEYAPTEGTLDIKEDMSEPQEKKLSENTDFLAPGVSSFTDSNQQESITKREENQEQPRNYSHHQLNRSSKHSQGLRDQGNQEQDPNISNGEEEEEKEPGEVGTHNDNQERKTELPREHANSKQEEDNTQSDDILEESDQPTQVSKMQEDEFDQGNQEQEDNSNAEMEEENASNVNKHIQETEWQSQEGKTGLEAISNHKETEEKTVSEALLMEPTDDGNTTPRNHGVDDDGDDDGDDGGTDGPRHSASDDYFIPSQAFLEAERAQSIAYHLKIEEQREKVHENENIGTTEPGEHQEAKKAENSSNEEETSSEGNMRVHAVDSCMSFQCKRGHICKADQQGKPHCVCQDPVTCPPTKPLDQVCGTDNQTYASSCHLFATKCRLEGTKKGHQLQLDYFGACKSIPTCTDFEVIQFPLRMRDWLKNILMQLYEANSEHAGYLNEKQRNKVKKIYLDEKRLLAGDHPIDLLLRDFKKNYHMYVYPVHWQFSELDQHPMDRVLTHSELAPLRASLVPMEHCITRFFEECDPNKDKHITLKEWGHCFGIKEEDIDENLLF
migration of human keratinocytes (rate of change of confluency) [1]: increased migration of human keratinocytes; also recorded: higher keratinocytes migration rate | minimum bactericidal concentration (MBC) / concentration required to significantly kill [5]: 0.0067 nM | bacterial reduction (CFU %) ([5]; SPARCL1 0.0067 nM): more than 50% | bacterial colonies (CFU counts) in excised wound [6]: reduction of bacterial colonies; also recorded: Reduction in bacterial colonies | biofilm disruption ([7]; SPARCL1 about 0.00134 nM): ~50% | minimum bactericidal concentration (MBC) / concentration required to significantly kill [8]: 1000 nM | bacterial reduction (CFU %) ([8]; SPARCL1 1000 nM, FIG. 6F): more than 50% | minimum bactericidal concentration (MBC) / concentration required to significantly kill [2]: 268 nM | bacterial reduction (CFU %) ([2]; SPARCL1 268 nM): more than 50% | biofilm disruption ([3]; SPARCL1 about 0.00134 nM): ~50%

B2: ENO3: recombinant full-length human ENO3 peptide, SEQ ID NO: 1, identified in bacteria-primed ASC conditioned media (protein, listed as Homo sapiens)
chain: MAMQKIFAREILDSRGNPTVEVDLHTAKGRFRAAVPSGASTGIYEALELRDGDKGRYLGKGVLKAVENINNTLGPALLQKKLSVVDQEKVDKFMIELDGTENKSKFGANAILGVSLAVCKAGAAEKGVPLYRHIADLAGNPDLILPVPAFNVINGGSHAGNKLAMQEFMILPVGASSFKEAMRIGAEVYHHLKGVIKAKYGKDATNVGDEGGFAPNILENNEALELLKTAIQAAGYPDKVVIGMDVAASEFYRNGKYDLDFKSPDDPARHITGEKLGELYKSFIKNYPVVSIEDPFDQDDWATWTSFLSGVNIQIVGDDLTVTNPKRIAQAVEKKACNCLLLKVNQIGSVTESIQACKLAQSNGWGVMVSHRSGETEDTFIADLVVGLCTGQIKTGAPCRSERLAKYNQLMRIEEALGDKAIFAGRKFRNPKAK
migration of human keratinocytes (rate of change of confluency) [1]: increased migration of human keratinocytes; also recorded: higher keratinocytes migration rate | bacterial reduction (CFU %) ([5]; ENO3 2.04 nM): more than 50% | minimum bactericidal concentration (MBC) / concentration required to significantly kill [5]: 2.04 nM | bacterial colonies (CFU counts) in excised wound [6]: reduction of bacterial colonies; also recorded: Reduction in bacterial colonies | biofilm disruption ([7]; ENO3 about 0.0102 nM): more than 50% | bacterial reduction (CFU %) ([8]; ENO3 0.102 nM, FIG. 6C): more than 50% | minimum bactericidal concentration (MBC) / concentration required to significantly kill [8]: 0.102 nM | MBC ([8]; S. aureus, >99% reduction of viable colonies, FIG. 6G): 2000 nM | MIC ([8]; S. aureus, spot plate, FIG. 6G): 2000 nM | MBC ([9]; >99% reduction of viable colonies): 6000 nM | MIC ([9]; spot plate): 4000 nM | bacterial reduction (CFU %) ([2]; ENO3 0.204 nM): more than 50% | minimum bactericidal concentration (MBC) / concentration required to significantly kill [2]: 0.204 nM | biofilm disruption ([3]; ENO3 about 0.0102 nM): ~50%
